This assay has as its target N-terminal eGFP fused human CHFR mutant lacking forkhead-associated domain (human) (UniProt Q96EP1). Description: co-IP; anti-GFP agarose beads (GFP-Trap) pull-down from lysates of HMEC transfected with eGFP-CHFR constructs, 48 h after transfection; 150 ug lysate protein, 2 h at 4 C; immunoblot for endogenous VE-cadherin; ratio of VE-cadherin to GFP-CHFR quantified.
UniProt Q96EP1, sequence (Q96EP1 whole entry, change not shown, the tested form may be a part): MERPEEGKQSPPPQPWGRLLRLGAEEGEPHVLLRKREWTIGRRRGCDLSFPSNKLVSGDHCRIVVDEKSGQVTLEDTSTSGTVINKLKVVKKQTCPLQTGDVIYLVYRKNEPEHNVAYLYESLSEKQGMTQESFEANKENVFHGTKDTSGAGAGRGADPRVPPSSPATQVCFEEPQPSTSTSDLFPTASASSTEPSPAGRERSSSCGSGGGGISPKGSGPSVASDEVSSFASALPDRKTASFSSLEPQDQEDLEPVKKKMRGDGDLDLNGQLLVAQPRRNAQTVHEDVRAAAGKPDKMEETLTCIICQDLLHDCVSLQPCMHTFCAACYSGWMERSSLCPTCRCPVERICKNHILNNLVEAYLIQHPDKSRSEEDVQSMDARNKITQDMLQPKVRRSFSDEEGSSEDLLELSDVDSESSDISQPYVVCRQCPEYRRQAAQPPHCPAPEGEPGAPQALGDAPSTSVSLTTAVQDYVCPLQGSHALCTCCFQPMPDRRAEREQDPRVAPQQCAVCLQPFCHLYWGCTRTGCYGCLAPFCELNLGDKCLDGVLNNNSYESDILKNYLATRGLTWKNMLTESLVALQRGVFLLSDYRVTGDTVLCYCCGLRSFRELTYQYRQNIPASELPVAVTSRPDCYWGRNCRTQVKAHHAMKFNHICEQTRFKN

B1: VE-cadherin, endogenous in HMEC (natural protein)
chain: DWIWNQMHIDEEKNTSLPHHVGKIKSSVSRKNAKYLLKGEYVGKVFRVDAETGDVFAIERLDRENISEYHLTAVIVDKDTGENLETPSSFTIKVHDVNDNWPVFTHRLFNASVPESSAVGTSVISVTAVDADDPTVGDHASVMYQILKGKEYFAIDNSGRIITITKSLDREKQARYEIVVEARDAQGLRGDSGTATVLVTLQDINDNFPFFTQTKYTFVVPEDTRVGTSVGSLFVEDPDEPQNRMTKYSILRGDYQDAFTIETNPAHNEGIIKPMKPLDYEYIQQYSFIVEATDPTIDLRYMSPPAGNRAQVIINITDVDEPPIFQQPFYHFQLKENQKKPLIGTVLAMDPDAARHSIGYSIRRTSDKGQFFRVTKKGDIYNEKELDREVYPWYNLTVEAKELDSTGTPTGKESIVQVHIEVLDENDNAPEFAKPYQPKVCENAVHGQLVLQISAIDKDITPRNVKFKFILNTENNFTLTDNHDNTANITVKYGQFDREHTKVHFLPVVISDNGMPSRTGTSTLTVAVCKCNEQGEFTFCEDMAAQVGVSIQAVVAILLCILTITVITLLIFLRRRLRKQARAHGKSVPEIHEQLVTYDEEGGGEMDTTSYDVSVLNSVRRGGAKPPRPALDARPSLYAQVQKPPRHAPGAHGGPGEMAAMIEVKKDEADHDGDGPPYDTLHIYGYEGSESIAESLSSLGTDSSDSDVDYDFLNDWGPRFKMLAELYGSDPREELLY
Consider B1, for which the fold binding against WT-CHFR is 2 fold.
